The record followed here is paper doi:10.1101/2020.07.16.206169.

In test [1] the target is PorZ from Porphyromonas gingivalis (Porphyromonas gingivalis) (UniProt Q9S3Q8). Nature of the test: MST.
Test [2] has the same target. Kind of test: MST. The source holds these as a separate data set.

Where two headings read alike, the source gives them in different places.

As to “PorU sortase from Porphyromonas gingivalis, hexahistidine-tagged (from UniProt B2RGP6 1-1158) (enzyme)”, the Kd – broadly, the concentration at which binding is half-saturated – in test [1] is 3.38 µM; in test [2], 672 nM.
